Numbering of substitutions follows the chain as printed.
T1: hIL-4R on cells (STAT6-transfected HEK293, TF1, TF1/A12) (human, UniProt P24394 26-825)
T1 sequence (looked up): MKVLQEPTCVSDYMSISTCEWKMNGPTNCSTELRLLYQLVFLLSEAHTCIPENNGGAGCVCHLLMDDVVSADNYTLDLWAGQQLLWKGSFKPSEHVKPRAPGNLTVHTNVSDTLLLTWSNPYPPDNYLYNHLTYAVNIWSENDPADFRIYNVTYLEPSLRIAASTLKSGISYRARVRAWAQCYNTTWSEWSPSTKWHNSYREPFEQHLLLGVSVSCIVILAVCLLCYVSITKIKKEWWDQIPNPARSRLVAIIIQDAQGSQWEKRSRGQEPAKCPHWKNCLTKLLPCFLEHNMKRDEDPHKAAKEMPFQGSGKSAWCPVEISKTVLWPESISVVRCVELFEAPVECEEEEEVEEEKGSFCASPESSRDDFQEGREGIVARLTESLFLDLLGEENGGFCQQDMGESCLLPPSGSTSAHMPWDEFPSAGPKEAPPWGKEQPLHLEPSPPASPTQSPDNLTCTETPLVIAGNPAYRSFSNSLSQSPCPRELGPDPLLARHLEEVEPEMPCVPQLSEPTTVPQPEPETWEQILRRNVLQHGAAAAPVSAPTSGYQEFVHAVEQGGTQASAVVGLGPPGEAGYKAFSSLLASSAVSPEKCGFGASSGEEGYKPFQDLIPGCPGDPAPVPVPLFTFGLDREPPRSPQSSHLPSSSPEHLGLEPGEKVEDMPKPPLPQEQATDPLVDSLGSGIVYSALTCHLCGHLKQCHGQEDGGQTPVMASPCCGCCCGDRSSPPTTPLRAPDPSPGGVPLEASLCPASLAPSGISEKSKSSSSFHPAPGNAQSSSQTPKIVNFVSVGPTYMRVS

T2: mouse IL-4R (mouse, UniProt P16382 26-233, limits assumed)
T2 sequence (looked up): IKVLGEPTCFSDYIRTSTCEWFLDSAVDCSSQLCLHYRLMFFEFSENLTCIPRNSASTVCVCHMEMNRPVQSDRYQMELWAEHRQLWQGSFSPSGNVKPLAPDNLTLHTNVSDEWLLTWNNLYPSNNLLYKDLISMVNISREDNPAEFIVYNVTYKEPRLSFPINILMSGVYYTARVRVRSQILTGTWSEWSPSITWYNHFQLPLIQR

T3: monomeric hIL-4R (R&D Systems) (human, UniProt P24394 26-231)
T3 construct: Bought (R&D Systems); also called hIL-4R monomer
T3 sequence: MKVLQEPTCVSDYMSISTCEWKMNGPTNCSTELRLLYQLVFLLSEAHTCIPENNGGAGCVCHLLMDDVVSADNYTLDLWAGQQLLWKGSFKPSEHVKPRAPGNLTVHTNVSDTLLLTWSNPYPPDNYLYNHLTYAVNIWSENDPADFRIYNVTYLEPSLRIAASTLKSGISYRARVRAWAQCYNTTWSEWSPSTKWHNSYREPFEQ

T4: dimeric hIL-4R-hFc (human, UniProt P24394 26-232)
T4 construct: also called hIL-4R-Fc; not shown: human Fc (hFc)
T4 sequence: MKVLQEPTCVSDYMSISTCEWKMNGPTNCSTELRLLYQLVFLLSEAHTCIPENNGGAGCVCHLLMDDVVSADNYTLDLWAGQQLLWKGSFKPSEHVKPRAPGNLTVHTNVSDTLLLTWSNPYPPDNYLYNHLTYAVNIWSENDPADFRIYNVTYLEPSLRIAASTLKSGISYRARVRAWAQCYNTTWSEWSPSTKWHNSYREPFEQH

B1: VAB 5C5-11 (antibody, V domains shown)
VH: QVQLVQSGAEVQKPGASVKVSCKASGYTFTGQYIHWVRQAPGQGLEWMGWINPNSGGTNFAQKFQDRVTMTRDTSIGTVYMELRRLTSDDTAVFYCVREKRGFDIWGQGTMVTVSS
VL: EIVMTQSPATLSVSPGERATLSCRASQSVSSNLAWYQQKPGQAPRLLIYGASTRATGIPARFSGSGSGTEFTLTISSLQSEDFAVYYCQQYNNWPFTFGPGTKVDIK
notes: Apparently tested with mouse constant region (anti-mouse IgG capture/detection)
B2: VAB 1H1-2 (antibody, V domains shown)
VH: QVQLVQSGAEVKKPGASVKVSCKASGYTFTSYGISWVRQAPGQGLEWMGWISVYNGNTNYAQKLQGRVTMTTDTSTSTAYMDLRSLRSDDAAVYYCARGSGYDFDYWGQGTLVTVSS
VL: AIQMTQSPSSLSASVGDRVTITCRASQGIRNALGWYQQKPGKAPKLLIYAASSLQSGVPSRFSGSGSGTDFTLTISSLQSEDFATYYCLQDYNYPYTFGQGTKLEIK
notes: as for B1
B3: VAB 3B4-10 (antibody, V domains shown)
VH: B2 VH with Q3H, S31N, S35G, V53I, K63R, Y80F, R87K, A91T, D103N, Y106H
VL: B2 VL with A32D, K39I, S77N, S80P, T85V, Y87F, Y92N, N93T, K103N, I106S
notes: as for B1
B4: VAB 6C10-14 (antibody, V domains shown)
VH: B2 VH with S31N, I34L, S35T, Q43R, K63T, Q65K, D82E, R84K, A91T
VL: B2 VL with T20A, G28D, A32D, Y49H, A50T, S77N, S80P, Y92N, N93S, K107N
notes: as for B1
B5: VAB 8G10-1 (antibody, V domains shown)
VH: B2 VH with A9P, S31N, T58I, A91T
VL: B2 VL with G28D, G66A, S80P, T85A
notes: as for B1
B6: VAB 4D5-3 (antibody, V domains shown)
VH: B2 VH with A9P, S31N, N57K, L64F, A91T
VL: B2 VL with Y49F, A51S, S76R, S80P, T85A
notes: as for B1
B7: VAB 11G8-1 (antibody, V domains shown)
VH: B2 VH with S31N, N57H, D82E, A91T, Y106S
VL: B2 VL with P8S, G28A, L46V, V58I, S80P, N93D
notes: as for B1
B8: VX 4E7-9 (antibody, V domains shown)
VH: B2 VH with S31N, N57K, S77T, D82E, L83M, A91T, F104L, T114S
VL: B2 VL with I75F, S80P, Y92F
notes: 387/389; Apparently tested with mouse constant region (anti-mouse IgG capture/detection)

Target: T1, hIL-4R on cells (STAT6-transfected …)
Experiment: cell-based or functional assay

Row | Binder | STAT6 Bioassay IC50 (HEK293 STAT6 luciferase, 10 pM hIL-4) | TF1/A12 Bioassay IC50 (proliferation, 20 pM hIL-4) | TF1 Bioassay IC50 (proliferation, 50 pM hIL-4)
1 | B1 | 0.14 nM | 0.37 nM | 0.21 nM
2 | B2 | > 10 nM | > 50 nM | 
3 | B3 | > 10 nM | > 50 nM | 
4 | B4 | > 10 nM | 23 nM | 
5 | B5 | > 10 nM | > 50 nM | 
6 | B6 | 3.8 nM | 21 nM | 
7 | B7 | > 10 nM | > 50 nM | 
8 | B8 | 7.9 nM | 10 nM | 

Target: T1, hIL-4R on cells (STAT6-transfected …)
Experiment: cell-based or functional assay
Remark: another data set of the same source

Row | Binder | STAT6 Bioassay IC50 (HEK293 STAT6 luciferase, 40 pM hIL-13) | TF1 Bioassay IC50 (proliferation, 150 pM hIL-13)
9 | B1 | 60 pM | 0.82 nM
10 | B2 | > 10 nM | 
11 | B3 | 8.3 nM | 
12 | B4 | > 10 nM | 
13 | B5 | > 10 nM | 
14 | B6 | 3.3 nM | 
15 | B7 | 8.8 nM | 
16 | B8 | 6.3 nM | 

Target: T2, mouse IL-4R
Experiment: binding affinity test of Example 2 (method not restated)

Row | Binder | binding result
17 | B1 | no binding
18 | B2 | no binding
19 | B3 | no binding
20 | B4 | no binding
21 | B5 | no binding
22 | B6 | no binding
23 | B7 | no binding
24 | B8 | no binding

Target: T3, monomeric hIL-4R (R&D Systems)
Experiment: SPR (BIAcore 2000); antibody captured, monomeric hIL-4R injected
Experimental: (§1) Binding affinity (KD) of selected antibodies with respect to hIL-4R was determined using a real-time biosensor surface plasmon resonance assay (BIAcore™ 2000). Briefly, antibody was captured on a goat anti-mouse (GAM) IgG polyclonal antibody surface created through direct chemical coupling of the GAM IgG to a BIAcore™ chip to form a captured antibody surface. […] Binding of antigen to antibody and dissociation of the bound complex, were monitored in real time. Equilibrium dissociation constants (KD) and dissociation rate constants were ascertained by performing kinetic analysis using BIA evaluation software. BIA evaluation software was also used to calculate the half-life of antigen/antibody complex dissociation (T_{1/2}). […] The binding affinity of anti-hIL-4R antibodies to either mouse or monkey (Macaca fascicularis) IL-4R was also tested.

Row | Binder | Kd | T1/2 monomeric
25 | B1 | 130 pM | 0.783 h
26 | B2 | 34900 pM | 0.133 h
27 | B3 | 590 pM | 1.7 h
28 | B4 | 1770 pM | 1.22 h
29 | B5 | 7710 pM | 0.467 h
30 | B6 | 2020 pM | 0.583 h
31 | B7 | 1630 pM | 0.417 h
32 | B8 | 1430 pM | 0.8 h

Target: T4, dimeric hIL-4R-hFc
Experiment: SPR (BIAcore 2000); antibody captured, dimeric hIL-4R-hFc injected
Experimental: as §1

Row | Binder | Kd | T1/2 dimeric
33 | B1 | 27 pM | 7.7 h
34 | B2 | 139 pM | 8.2 h
35 | B3 | 53 pM | 20.4 h
36 | B4 | 286 pM | 6.2 h
37 | B5 | 5510 pM | 4.1 h
38 | B6 | 32 pM | 20.4 h
39 | B7 | 108 pM | 8.7 h
40 | B8 | 111 pM | 19.1 h

Target: T4, dimeric hIL-4R-hFc
Experiment: ELISA; antibody titrated against 25 pM hIL-4R-Fc, free receptor caught on hIL-4 plate
Experimental: Concentration of free hIL-4R-Fc (no antibody bound) was determined using a hIL-4R-specific sandwich ELISA. […] After a one-hour incubation at room temperature, the detection plate was washed and plate-bound hIL-4R-hFc was detected using HRP conjugated goat anti-hFc polyclonal antibodies and developed using colorimetric substrates such as BD OptEIA™ (BD Biosciences Pharmingen, San Diego, Calif.). After the reaction was stopped with 1 M phosphoric or sulfuric acid, absorbances at 450 nm were recorded and the data were analyzed using GraphPad™ Prism software.

Row | Binder | IC50
41 | B1 | 24 pM
42 | B2 | 146 pM
43 | B3 | 322 pM
44 | B4 | 441 pM
45 | B5 | 244 pM
46 | B6 | 240 pM
47 | B7 | 240 pM
48 | B8 | 118 pM

Target: T4, dimeric hIL-4R-hFc
Experiment: SPR; reduction of hIL-4 (50 nM) binding to captured hIL-4R-hFc after antibody; competitor hIL-4
From the text: Purified hIL-4R-hFc molecules were captured by goat anti-human IgG polyclonal antibody immobilized on CM-5 to a density of 260 RU, to prepare a receptor-coated surface.

Row | Binder | % Inhibition (BIAcore)
49 | B1 | 96%
50 | B2 | 78%
51 | B3 | 72%
52 | B4 | 79%
53 | B5 | 74%
54 | B6 | 82%
55 | B7 | 77%
56 | B8 | 79%
